Experimental data published in patent US20250382344A1, “Soluble GLP1/GIP/NPY2 Receptor Triple Agonists” (Boehringer Ingelheim International GmH, priority 2024, published 2025).
Residue numbers refer to the chain shown, from its start. *1 amine or outer side, *2 acyl side, *3 side chain or, on linkers, in order; H or OH if unused. Where no end group is shown, it is not given here. Side-chain parts run from the residue outwards. [ ]: non-standard residue; d: D form. The star is where a group is joined. γDab = gamma-linked diaminobutyric acid unit, O=C([C@H](CCN[*:1])N[*:3])[*:2]; C20 diacid = O=C(O)CCCCCCCCCCCCCCCCCCC(=O)*; C18 diacid = O=C(O)CCCCCCCCCCCCCCCCC(=O)*; γGlu = O=C(O)[C@H](CCC(=O)[*:2])N[*:1]; εLys = N[C@@H](CCCCN[*:1])C(=O)[*:2]; dtOrn = not defined here; AEEA = NCCOCCOCC(=O)O; Aib = CC(C)(N)C(=O)O

T1: human neuropeptide Y2 receptor (human, UniProt P49146 1-381)
T1 sequence (looked up): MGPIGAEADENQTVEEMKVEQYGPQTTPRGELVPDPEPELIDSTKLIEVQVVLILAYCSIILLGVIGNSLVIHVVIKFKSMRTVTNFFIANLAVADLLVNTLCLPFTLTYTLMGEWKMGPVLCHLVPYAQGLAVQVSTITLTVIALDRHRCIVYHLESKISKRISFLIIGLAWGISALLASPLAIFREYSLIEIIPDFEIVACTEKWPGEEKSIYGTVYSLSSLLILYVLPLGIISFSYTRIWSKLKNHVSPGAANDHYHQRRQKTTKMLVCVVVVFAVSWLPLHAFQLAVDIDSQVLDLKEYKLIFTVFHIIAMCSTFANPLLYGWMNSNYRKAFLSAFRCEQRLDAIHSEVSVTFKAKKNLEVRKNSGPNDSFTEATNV

T2: human GIP receptor (human, UniProt P48546 22-466)
T2 sequence (looked up): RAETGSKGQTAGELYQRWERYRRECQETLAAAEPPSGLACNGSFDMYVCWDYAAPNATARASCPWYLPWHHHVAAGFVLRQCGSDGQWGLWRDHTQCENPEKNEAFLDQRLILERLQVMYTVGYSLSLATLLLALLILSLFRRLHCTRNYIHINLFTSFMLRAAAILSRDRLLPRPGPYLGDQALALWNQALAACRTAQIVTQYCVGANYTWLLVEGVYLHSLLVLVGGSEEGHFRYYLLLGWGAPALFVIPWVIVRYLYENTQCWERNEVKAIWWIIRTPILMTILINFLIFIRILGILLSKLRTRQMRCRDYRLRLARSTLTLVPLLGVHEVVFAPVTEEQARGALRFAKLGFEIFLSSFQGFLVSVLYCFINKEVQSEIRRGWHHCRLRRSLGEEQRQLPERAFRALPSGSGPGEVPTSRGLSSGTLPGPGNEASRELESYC

B1: Compound 167 (peptide)
peptide: YXEGTFTSDYSIXLEKQAQXAFVRHLINKXTRQRY
modifications: Aib at 2, 13, 20, 30; Lys29 epsilon-amino: C20DA-gGlu-gGlu-gGlu-gGlu-gGlu-AHX; C-terminal amide
B2: Compound 149 (peptide)
peptide: B1 peptide with A21E
modifications: Aib at 2, 13, 20, 30; Lys29 epsilon-amino: C20DA-gGlu-gGlu-gGlu-gGlu-gGlu-gGlu-eLys; C-terminal amide
B3: Compound 160 (peptide)
peptide: B1 peptide with X13E
modifications: Aib at 2, 20, 30; Lys29 epsilon-amino: C18DA-gGlu-gGlu-gGlu-gGlu-gGlu-gGlu-eLys; C-terminal amide
B4: Compound 92 (peptide)
peptide: B1 peptide
modifications: Aib at 2, 13, 20, 30; Lys29 epsilon-amino: C18DA-gGlu-gGlu-gGlu-gGlu-gGlu-gGlu-eLys; C-terminal amide
B5: Compound 90 (peptide)
peptide: B1 peptide with R34X
modifications: Aib at 2, 13, 20, 30; dOR at 34; Lys29 epsilon-amino: C18DA-gGlu-gGlu-gGlu-gGlu-gGlu-gGlu-eLys; C-terminal amide
B6: Compound 115 (peptide)
peptide: B1 peptide with Y10L, I27L
modifications: Aib at 2, 13, 20, 30; Lys29 epsilon-amino: C20DA-gGlu-gGlu-gGlu-gGlu-gGlu-gGlu-eLys; C-terminal amide
B7: Compound 128 (peptide)
peptide: B1 peptide with H25A
modifications: Aib at 2, 13, 20, 30; Lys29 epsilon-amino: C18DA-gGlu-gGlu-gGlu-gGlu-gGlu-gGlu-eLys; C-terminal amide
B8: Compound 105 (peptide)
peptide: B1 peptide with E15D
modifications: Aib at 2, 13, 20, 30; Lys29 epsilon-amino: C18DA-gGlu-gGlu-gGlu-gGlu-gGlu-gGlu-eLys; C-terminal amide
B9: Compound 89 (peptide)
peptide: B1 peptide with K16E
modifications: Aib at 2, 20, 30; aMeL at 13; Lys29 epsilon-amino: C20DA-gGlu-gGlu-gGlu-gGlu-gGlu-gGlu-eLys; C-terminal amide
B10: Compound 124 (peptide)
peptide: B1 peptide with K16R
modifications: Aib at 2, 13, 20, 30; Lys29 epsilon-amino: C18DA-gGlu-gGlu-gGlu-gGlu-gGlu-gGlu-eLys; C-terminal amide
B11: Compound 111 (peptide)
peptide: B1 peptide with Q19A
modifications: Aib at 2, 13, 20, 30; Lys29 epsilon-amino: C18DA-gGlu-gGlu-gGlu-gGlu-gGlu-gGlu-eLys; C-terminal amide
B12: Compound 116 (peptide)
peptide: B1 peptide
modifications: Aib at 2, 13, 20, 30; NMeY at 35; Lys29 epsilon-amino: C18DA-gGlu-gGlu-gGlu-gGlu-gGlu-gGlu-eLys; C-terminal amide
B13: Compound 146 (peptide)
peptide: B1 peptide with R34X
modifications: Aib at 2, 13, 20, 30; bhArg at 34; Lys29 epsilon-amino: C18DA-gGlu-gGlu-gGlu-gGlu-gGlu-gGlu-eLys; C-terminal amide
B14: Compound 101 (peptide)
peptide: B1 peptide
modifications: Aib at 2, 13, 20, 30; Lys29 epsilon-amino: C20DA-gGlu-gGlu-gGlu-gGlu-gGlu-gGlu-gGlu; C-terminal amide
B15: Compound 103 (peptide)
peptide: B1 peptide with Q19E
modifications: Aib at 2, 20, 30; aMeL at 13; Lys29 epsilon-amino: C20DA-gGlu-gGlu-gGlu-gGlu-gGlu-gGlu-eLys; C-terminal amide
B16: Compound 145 (peptide)
peptide: B1 peptide with A21E
modifications: Aib at 2, 13, 20, 30; Lys29 epsilon-amino: C18DA-gGlu-gGlu-gGlu-gGlu-gGlu-gGlu-eLys; C-terminal amide
B17: Compound 109 (peptide)
peptide: B1 peptide with V23I
modifications: Aib at 2, 13, 20, 30; Lys29 epsilon-amino: C20DA-gGlu-gGlu-gGlu-gGlu-gGlu-gGlu-eLys; C-terminal amide
B18: Compound 104 (peptide)
peptide: B1 peptide with Q19E
modifications: Aib at 2, 13, 20, 30; Lys29 epsilon-amino: C20DA-gGlu-gGlu-gGlu-gGlu-gGlu-gGlu-eLys; C-terminal amide
B19: Compound 100 (peptide)
peptide: Y[Aib]EGTFTSDYSI[Aib]LEKEAQ[Aib]EFVRHLINK([γGlu-γGlu-γGlu-γGlu-C18 diacid])[Aib]TRQRY-NH2
modifications: N-terminus assumed
SMILES: CC[C@H](C)[C@H](NC(=O)[C@H](CC(C)C)NC(=O)[C@H](Cc1c[nH]cn1)NC(=O)[C@H](CCCNC(=N)N)NC(=O)[C@@H](NC(=O)[C@H](Cc1ccccc1)NC(=O)[C@H](CCC(=O)O)NC(=O)C(C)(C)NC(=O)[C@H](CCC(N)=O)NC(=O)[C@H](C)NC(=O)[C@H](CCC(=O)O)NC(=O)[C@H](CCCCN)NC(=O)[C@H](CCC(=O)O)NC(=O)[C@H](CC(C)C)NC(=O)C(C)(C)NC(=O)[C@@H](NC(=O)[C@H](CO)NC(=O)[C@H](Cc1ccc(O)cc1)NC(=O)[C@H](CC(=O)O)NC(=O)[C@H](CO)NC(=O)[C@@H](NC(=O)[C@H](Cc1ccccc1)NC(=O)[C@@H](NC(=O)CNC(=O)[C@H](CCC(=O)O)NC(=O)C(C)(C)NC(=O)[C@@H](N)Cc1ccc(O)cc1)[C@@H](C)O)[C@@H](C)O)[C@@H](C)CC)C(C)C)C(=O)N[C@@H](CC(N)=O)C(=O)N[C@@H](CCCCNC(=O)CC[C@H](NC(=O)CC[C@H](NC(=O)CC[C@H](NC(=O)CC[C@H](NC(=O)CCCCCCCCCCCCCCCCC(=O)O)C(=O)O)C(=O)O)C(=O)O)C(=O)O)C(=O)NC(C)(C)C(=O)N[C@H](C(=O)N[C@@H](CCCNC(=N)N)C(=O)N[C@@H](CCC(N)=O)C(=O)N[C@@H](CCCNC(=N)N)C(=O)N[C@@H](Cc1ccc(O)cc1)C(N)=O)[C@@H](C)O

Experiments:
Assay in all cases: cell-based or functional assay
[1] = target: T1, human neuropeptide Y2 receptor
human GIP receptor = target: T2, human GIP receptor
human GLP-1 receptor = human GLP-1 receptor (human, UniProt P43220 24-463)

Binder | EC50, CreLuc reporter, 100% hP [1] | EC50, CreLuc reporter, 0.5% hP (human GIP receptor) | EC50, CreLuc reporter, 0.5% hP [1] | EC50, CreLuc reporter, 100% hP (human GLP-1 receptor) | EC50, CreLuc reporter, 0.5% hP (human GLP-1 receptor) | EC50, CreLuc reporter, 100% hP (human GIP receptor)
Y[Aib]EGTFTSDYSI[Aib]LEKQAE[Aib]AFVRHLINK([εLys-γGlu-γGlu-AEEA-γGlu-γGlu-γGlu-C20 diacid])[Aib]TRQRY-NH2 [Compound 162] | 43.8 nM | 0.7 nM | – | – | – | –
Y[Aib]EGTFTSDYSI[Aib]LEKQAQ[Aib]AFVRHLINK([dtOrn-γGlu-γGlu-γGlu-γGlu-γGlu-γGlu-C18 diacid])[Aib]TRQRY-NH2 (reading uncertain) [Compound 87] | – | – | 16.5 nM | 5.6 nM | – | –
Y[Aib]EGTFTSDYSI[Aib]LEKQAE[Aib]AFVRHLINK([εLys-AEEA-γGlu-γGlu-γGlu-γGlu-γGlu-C20 diacid])[Aib]TRQRY-NH2 [Compound 161] | – | – | – | 5 nM | 2 nM | –
Y[Aib]EGTFTSDYSI[Aib]LEKQAQ[Aib]EFVRHLINK([εLys-γGlu-γGlu-γGlu-γGlu-C18 diacid])[Aib]TRQRY-NH2 [Compound 163] | 218 nM | 0.2 nM | – | – | – | 5.9 nM
B1 | 267 nM | – | 13.3 nM | 18.7 nM | 1 nM | –
B2 | 166 nM | – | – | 3.3 nM | – | –
B3 | 28.5 nM | – | 15.5 nM | 27 nM | 7.1 nM | –
B4 | 22.6 nM | – | – | 2 nM | – | –
B5 | – | – | – | – | 2 nM | 0.6 nM
B6 | 107 nM | – | 10.1 nM | 9.8 nM | 7 nM | –
B7 | – | 0.2 nM | – | 4 nM | 0.7 nM | 5.7 nM
B8 | 49.6 nM | – | 19.9 nM | 3.4 nM | 0.3 nM | –
B9 | – | – | – | 1.7 nM | 0.2 nM | 0.9 nM
B10 | – | 0.1 nM | – | – | 0.5 nM | 4 nM
B11 | 77.4 nM | – | 53.6 nM | 6.1 nM | 4.7 nM | –
B12 | – | – | – | – | 2 nM | 3.4 nM
B13 | 89.8 nM | – | 51.5 nM | – | 1 nM | –
B14 | – | 1 nM | – | 20 nM | – | –
B15 | 131 nM | – | 25.9 nM | 0.6 nM | 0.4 nM | –
B16 | 94.2 nM | – | – | 1.8 nM | 0.5 nM | –
B17 | – | 0.3 nM | – | – | 0.8 nM | –
B18 | 129 nM | – | 17.5 nM | 12.9 nM | 2 nM | –
Y[Aib]EGTFTSDYSI[Aib]LEKQAQ[Aib]AFVRHLINK([γGlu-γGlu-γGlu-γGlu-γGlu-γGlu-C18 diacid])[Aib]TRQRY-NH2 [Compound 134] | – | – | – | 4 nM | 1 nM | –
B19 | – | 0.5 nM | – | – | 0.2 nM | –
Y[Aib]EGTFTSDYSI[Aib]LEKQAQ[Aib]AFVRHLINK([γDab-γGlu-γGlu-γGlu-γGlu-γGlu-γGlu-C18 diacid])[Aib]TRQRY-NH2 [Compound 120] | – | – | 23.9 nM | 4 nM | – | –
